The target of assay [1] is C-terminally truncated PTEN (t-PTEN, aa 1-378) (human) (UniProt P60484).
Assay [2] shares this target. This is another data set of the same source.

“synthetic C-tail tetraphosphorylated peptide (aa 379-403, 4p-25mer) (from UniProt P60484 379-403)” had an extent of inhibition of the lipid phosphatase activity of t-PTEN by 4p-25mer with soluble PIP3 substrate in assay [1] above 95%. The same substance displayed an inhibition of t-PTEN soluble PIP3 (diC6-PIP3) phosphatase activity by the peptide in trans, malachite green phosphate release, IC50 in assay [2] of 1000 nM.
